Paper PMC12135382 (The Journal of Biological Chemistry, 2025)

Biological target: T1, GR W712A-LgBiT (human, UniProt P04150 1-777, W712A)
T1 sequence: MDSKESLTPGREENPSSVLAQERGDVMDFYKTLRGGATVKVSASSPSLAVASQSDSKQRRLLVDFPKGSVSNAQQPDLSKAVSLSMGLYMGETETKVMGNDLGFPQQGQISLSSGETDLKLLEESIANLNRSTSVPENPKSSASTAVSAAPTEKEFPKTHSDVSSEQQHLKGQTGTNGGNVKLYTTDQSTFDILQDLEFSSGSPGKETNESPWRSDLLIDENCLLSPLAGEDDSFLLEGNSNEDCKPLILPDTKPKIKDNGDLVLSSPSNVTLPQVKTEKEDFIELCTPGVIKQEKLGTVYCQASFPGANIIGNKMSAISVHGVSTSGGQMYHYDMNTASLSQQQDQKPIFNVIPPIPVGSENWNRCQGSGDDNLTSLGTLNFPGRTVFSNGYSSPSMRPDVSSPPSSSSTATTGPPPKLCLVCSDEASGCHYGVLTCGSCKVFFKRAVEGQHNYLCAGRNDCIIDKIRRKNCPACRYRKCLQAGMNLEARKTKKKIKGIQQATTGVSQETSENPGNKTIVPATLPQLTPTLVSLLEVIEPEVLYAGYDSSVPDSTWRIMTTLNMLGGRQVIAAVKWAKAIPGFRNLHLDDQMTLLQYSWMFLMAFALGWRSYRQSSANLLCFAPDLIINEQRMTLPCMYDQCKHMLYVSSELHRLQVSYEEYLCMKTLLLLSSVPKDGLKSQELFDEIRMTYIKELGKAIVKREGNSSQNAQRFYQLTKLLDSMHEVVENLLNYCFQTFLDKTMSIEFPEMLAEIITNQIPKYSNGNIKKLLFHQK
Test: split reporter

reconstituted luciferase activity relative to WT receptors: 32%
B1: MR-SmBiT (mineralocorticoid receptor with C-terminal NanoBit small tag) (receptor)
chain: METKGYHSLPEGLDMERRWGQVSQAVERSSLGPTERTDENNYMEIVNVSCVSGAIPNNSTQGSSKEKQELLPCLQQDNNRPGILTSDIKTELESKELSATVAESMGLYMDSVRDADYSYEQQNQQGSMSPAKIYQNVEQLVKFYKGNGHRPSTLSCVNTPLRSFMSDSGSSVNGGVMRAVVKSPIMCHEKSPSVCSPLNMTSSVCSPAGINSVSSTTASFGSFPVHSPITQGTPLTCSPNVENRGSRSHSPAHASNVGSPLSSPLSSMKSSISSPPSHCSVKSPVSSPNNVTLRSSVSSPANINNSRCSVSSPSNTNNRSTLSSPAASTVGSICSPVNNAFSYTASGTSAGSSTLRDVVPSPDTQEKGAQEVPFPKTEEVESAISNGVTGQLNIVQYIKPEPDGAFSSSCLGGNSKINSDSSFSVPIKQESTKHSCSGTSFKGNPTVNPFPFMDGSYFSFMDDKDYYSLSGILGPPVPGFDGNCEGSGFPVGIKQEPDDGSYYPEASIPSSAIVGVNSGGQSFHYRIGAQGTISLSRSARDQSFQHLSSFPPVNTLVESWKSHGDLSSRRSDGYPVLEYIPENVSSSTLRSVSTGSSRPSKICLVCGDEASGCHYGVVTCGSCKVFFKRAVEGQHNYLCAGRNDCIIDKIRRKNCPACRLQKCLQAGMNLGARKSKKLGKLKGIHEEQPQQQQPPPPPPPPQSPEEGTTYIAPAKEPSVNTALVPQLSTISRALTPSPVMVLENIEPEIVYAGYDSSKPDTAENLLSTLNRLAGKQMIQVVKWAKVLPGFKNLPLEDQITLIQYSWMCLSSFALSWRSYKHTNSQFLYFAPDLVFNEEKMHQSAMYELCQGMHQISLQFVRLQLTFEEYTIMKVLLLLSTIPKDGLKSQAAFEEMRTNYIKELRKMVTKCPNNSGQSWQRFYQLTKLLDSMHDLVSDLLEFCFYTFRESHALKVEFPAMLVEIISDQLPKVESGNAKPLYFHRK
